Data: paper PMC11321701, “Generation and Characterization of Novel Pan‐Cancer Anti‐uPAR Fluorescent Nanobodies as Tools for Image‐Guided Surgery” (Advanced Science, 2024)
Read-outs that look alike come from different tables or passages of the source.

How the values were obtained:
[1] = target: T1, recombinant human urokinase plasminogen activator receptor (HuPAR) protein (Homo sapiens, UniProt Q03405)
Target sequence in this assay (Q03405 23-305): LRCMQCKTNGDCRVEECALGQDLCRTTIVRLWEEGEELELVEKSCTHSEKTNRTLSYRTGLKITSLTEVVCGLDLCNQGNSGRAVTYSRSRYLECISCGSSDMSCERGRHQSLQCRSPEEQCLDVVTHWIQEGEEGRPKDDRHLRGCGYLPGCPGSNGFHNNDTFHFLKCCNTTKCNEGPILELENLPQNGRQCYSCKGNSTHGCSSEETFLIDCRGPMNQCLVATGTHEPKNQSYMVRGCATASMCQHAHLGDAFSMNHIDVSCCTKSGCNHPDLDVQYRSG

[2] = target: T1, recombinant human urokinase plasminogen …; test: SPR; kinetic binding parameters (ka, kd, KD) of purified Nbs toward recombinant H, M or CuPAR antigens; details: both partners purified
Target sequence in this assay (Q03405 whole entry, looked up): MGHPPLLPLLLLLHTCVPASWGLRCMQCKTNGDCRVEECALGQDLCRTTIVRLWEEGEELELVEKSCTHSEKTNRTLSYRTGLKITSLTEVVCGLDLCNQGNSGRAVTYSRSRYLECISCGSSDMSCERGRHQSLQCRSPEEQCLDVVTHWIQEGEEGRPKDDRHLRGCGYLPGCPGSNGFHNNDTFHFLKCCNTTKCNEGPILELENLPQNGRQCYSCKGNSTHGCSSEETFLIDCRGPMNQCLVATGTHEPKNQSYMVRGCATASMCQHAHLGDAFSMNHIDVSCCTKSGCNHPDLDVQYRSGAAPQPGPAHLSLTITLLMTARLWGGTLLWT

[3] = target: T2, recombinant murine urokinase plasminogen activator receptor (MuPAR) protein (Mus musculus, UniProt P35456); test: ELISA; BE-ELISA: bacterial extracts of Nb clones on H, M or CuPAR protein, against uncoated control; cross-reactivity screening; details: one partner purified
T2 construct: 'Extracellular domain' is said of the immunogen; also called murine uPAR

[4] = target: T2, recombinant murine urokinase …; test: SPR; kinetic binding parameters (ka, kd, KD) of purified Nbs toward recombinant H, M or CuPAR antigens; details: both partners purified

T2 sequence (P35456 whole entry, looked up, the tested form may be a part): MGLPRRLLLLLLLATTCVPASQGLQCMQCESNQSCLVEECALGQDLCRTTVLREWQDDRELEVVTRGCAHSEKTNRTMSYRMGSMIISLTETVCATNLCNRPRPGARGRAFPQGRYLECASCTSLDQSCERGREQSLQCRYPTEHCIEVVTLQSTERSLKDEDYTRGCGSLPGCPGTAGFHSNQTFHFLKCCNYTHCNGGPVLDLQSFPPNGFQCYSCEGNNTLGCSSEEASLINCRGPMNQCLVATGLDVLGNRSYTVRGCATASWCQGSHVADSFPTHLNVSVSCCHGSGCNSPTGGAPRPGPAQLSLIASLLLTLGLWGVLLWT

| Binder | Kd [1] [nM] | other results |
| --- | --- | --- |
| 5A5 (Nb 16) (VHH) VHH: QVQLQESGGGLVQPGGSLRLSCAISGFTLDYYGIGWFRQAPGKEREGVSCISSSDGSTYYADSVKGRFTISRDNAKNTVYLQMNSLKPEDTAVYYCATRGASCYYSGSYSLGYDYWGQGTQVTVSS | 3 | – |
| 5B7 (Nb 17) (VHH) VHH: QVQLQESGGGLVQPGGSLRLSCAVSGSTLEYYGIGWFRQAPGKEREGVSCISSSDGSTYYADSVKGRFTISRDNAKNTVYLQMNSLKPEDTAVYYCATRGASCYYTGSYSLGYDYWGQGTQVTVSS | 2.3 | – |
| 5H2 (Nb 18) (VHH) VHH: QVQLQESGGGLAQPGGSLRLSCTASGFTSDYYGIGWFRQAPGKEREGVSCISSSDGSTYYADSVKGRFTISRDNAKNTVYLQMNSLKPEDTAVYYCATRGASCYYTGSYSLGYDYWGQGTQVTVSS | 4.7 | – |
| Nb 15 (VHH, Nanobody from a llama immunized with human and murine uPAR; The clone in bacterial extracts came before recloning into the expression vector, so its tags may differ from the purified form; also called anti-HuPAR Nb 15; lead anti-HuPAR/CuPAR Nanobody; source: E. coli WK6, purified from the periplasm (osmotic shock, IMAC, SEC); bacterial extracts for ELISA and SPR off-rate screening) VHH: QVQLQESGGGWVQPGGSLRLSCAASGFTLDYYGIGWFRQAPGKEREGVSCISSSDGSTYYADSVKGRFTISRDNAKNTVYLQMNSLKPEDTAVYYCATRGASCYYTGSYSLGYDYWGQGTQVTVSS | – | Kd [2]: < 10 nM; binding result [3]: no binding |
| Nb 13 (VHH, Nb 13 is the only member of its family; Nanobody from a llama immunized with human and murine uPAR; also called lead anti-MuPAR Nanobody; source: E. coli WK6, purified from the periplasm (osmotic shock, IMAC, SEC)) VHH: QVQLQESGGGLVQSGGSLRLSCAVSGIGFVYYAMRWWRQAPGKERELVAGITGASGNTNYAESVKDRFTISRDNASNTVYLQMNSLKPEDTAVYYCNAAPLIRFGPPKDYWGQGTQVTVSS | – | Kd [4]: < 10 nM |
